According to patent US20100015126A1, “Methods of Binding of Cross-Beta Structures By Chaperones” (priority 2006, published 2010):

Columns and labels:
[1] = Transmission electron microscopy (TEM); format: physicochemical; details: 2.5 mg/ml peptide stocks
Protocol: Transmission Electron Microscopy (TEM)
TEM images were collected using a Jeol 1200 EX transmission electron microscope (Jeol Ltd., Tokyo, Japan) at an excitation voltage of 80 kV. For each sample, the formvar and carbon-coated side of a 100-mesh copper or nickel grid was positioned on a 5 μl drop of protein solution for 5 minutes. Afterwards, it was positioned on a 100 μl drop of PBS for 2 minutes, followed by three 2-minute incubations with a 100 μl drop of distilled water. The grids were then stained for 2 minutes with a 100 μl drop of 2% (m/v) methylcellulose with 0.4% uranyl acetate pH 4. Excess fluid was removed by streaking the side of the grids over filter paper, and the grids were subsequently dried under a lamp. Samples were analysed at a magnification of 10K.

human BiP [2] = target: T1, human BiP (Homo sapiens, UniProt P11021); assay: ELISA: binding of BiP-FLAG-His to immobilized (misfolded) protein ligands; details: ligands coated at 5 μg/ml; 6BB peptides and oxLDL 50 μg/ml
T1 construct: The human BiP gene except the signal peptide encoding region was obtained from Geneart (Germany); linker […]; made in house; host or cells: HEK 293E cells, transient transfection, PABC674 vector; secreted into the medium
T1 sequence (P11021 19-654): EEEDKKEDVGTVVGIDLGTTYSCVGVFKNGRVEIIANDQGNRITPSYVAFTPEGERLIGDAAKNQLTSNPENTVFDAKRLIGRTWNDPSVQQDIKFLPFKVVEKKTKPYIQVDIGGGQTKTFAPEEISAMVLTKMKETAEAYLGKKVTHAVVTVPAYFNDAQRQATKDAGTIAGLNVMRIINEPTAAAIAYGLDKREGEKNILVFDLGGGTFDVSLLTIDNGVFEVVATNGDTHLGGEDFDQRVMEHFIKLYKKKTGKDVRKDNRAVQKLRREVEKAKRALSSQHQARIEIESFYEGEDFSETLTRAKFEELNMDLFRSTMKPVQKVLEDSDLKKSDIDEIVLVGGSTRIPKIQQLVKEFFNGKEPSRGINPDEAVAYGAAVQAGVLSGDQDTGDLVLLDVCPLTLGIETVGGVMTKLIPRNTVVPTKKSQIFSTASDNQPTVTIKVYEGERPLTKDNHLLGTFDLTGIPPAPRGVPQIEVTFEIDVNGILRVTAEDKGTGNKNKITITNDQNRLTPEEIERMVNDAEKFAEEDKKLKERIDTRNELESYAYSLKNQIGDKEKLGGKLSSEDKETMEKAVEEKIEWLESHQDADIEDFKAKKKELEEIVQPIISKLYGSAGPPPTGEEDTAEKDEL
Protocol: Enzyme Linked Immunosorbent Assay for Testing of Chaperone Binding to Misfolded Proteins
(§1) Binding of chaperones to immobilized (misfolded) protein ligands was determined using an enzyme linked immuno sorbent assay (ELISA) approach. For this purpose 50 μl/well of potential ligands at indicated concentrations or coat buffer only for control and background measurement purposes, were coated overnight at 4° C. or coated for 1 h at room temperature, with motion, in 50 mM NaHCO3 pH 9.6 (coat buffer). In general, ligands were coated at 5 μg/ml, unless stated otherwise. For example, BiP binding peptides 6BB# and oxLDL were coated at 50 μg/ml. Native haemoglobin (Sigma-Aldrich, H7379), albumin, IgIV Gammagard and ovalbumin controls were prepared from lyophilized stocks. The controls were prepared by dissolving lyophilized proteins at 1 mg/ml in PBS upon resuspending by pipetting, followed by a 30 minutes period at the roller device, at room temperature. The protein solutions were centrifuged for 10 minutes at 16,000*g and diluted in coat buffer. After coating the plates were washed at least three times with 50 mM Tris-HCl pH 7.3, 150 mM NaCl, 0.1% v/v Tween20, and blocked with Blocking reagent (Roche Diagnostics, Almere, The Netherlands; 11112589001), for 1 h at room temperature, with motion. Plates were washed three times and incubated in triplicate with indicated chaperone dilution series, at 50 μl/well, for 1 h at room temperature, with constant motion. For HSP90, 5 mM DTT is incorporated in the binding buffer (PBS/0.1% Tween20) to avoid unwanted disulfide bond formation of the HSP90. Plates were washed three times and incubated with anti-FLAG antibody (mouse antibody, M2, peroxidase conjugate; Sigma, A-8592) for BiP-FLAG-His, anti-His-tag antibody (Mouse Monoclonal Antibody, Cat. No. 70796, Novagen [0.2 mg/ml]) for HSP60, a 1:1 mix of 500-fold diluted anti-HSP90beta antibodies (Stressgen, SPA-643 [mouse monoclonal IgM], SPA-646 [rabbit polyclonal]) for HSP90 and an anti-DnaK antibody (Stressgen, 023SPA-880D [mouse monoclonal antibody]) for DnaK. After four wash cycles, secondary antibodies were added to the wells when required, 50 μl/well, for 45′ at room temperature, with motion. RAMPO and SWARPO were used at 3000 times dilution. […] In a second experiment with more immobilized misfolded proteins and controls, the detection of bound HSP90 with the mix of two anti-HSP90 antibodies was achieved by mixing 1:1500 SWARPO with 1:3000 RAMPO. After 5 washes with wash buffer followed by two washes with PBS, binding of antibodies was assessed. Bound anti-FLAG-PO, peroxidase-conjugated rabbit anti-mouse immunoglobulins (RAMPO, P0260, DAKOCytomation, Glostrup, Denmark) or peroxidase-coupled swine anti-rabbit immunoglobulins (SWARPO, P0217, DAKOCytomation) was visualized with tetramethylbenzidine (TMB, #45.01.20,/#45.014.01, Biosource, Nivelles, Belgium). The reaction was stopped after 5 minutes with 1% H2SO4 in H2O. Plates were read at 450 nm. Triplicates were averaged and standard deviations calculated. Background signals obtained with buffer-coated wells were subtracted (binding of primary antibody to empty wells), as well as background signals obtained with ligand-coated wells in which the chaperones were omitted (binding of primary and secondary antibody to coated ligands). Subsequently, sub-optimal concentrations of chaperones for binding to misfolded protein ligands are determined, and these concentrations are used for inhibition studies. […] We have previously identified that a sub-fraction of IgIV molecules has affinity for misfolded proteins comprising crossbeta structure (pending patent application). Moreover, we identified that the sub-fraction of IgIV molecules directly binds to crossbeta structure and/or crossbeta structure induced conformation (not shown; pending patent application). […]

human BiP [3] = target: T1, human BiP; assay: Competition ELISA: BiP binding to misfolded proteins under influence of crossbeta binding compounds; details: fixed sub-optimal BiP concentration
Protocol: Binding of chaperones to immobilized (misfolded) protein ligands was determined using an enzyme linked immuno sorbent assay (ELISA) approach. For this purpose 50 μl/well of potential ligands at indicated concentrations or coat buffer only for control and background measurement purposes, were coated overnight at 4° C. or coated for 1 h at room temperature, with motion, in 50 mM NaHCO3 pH 9.6 (coat buffer). In general, ligands were coated at 5 μg/ml, unless stated otherwise. For example, BiP binding peptides 6BB# and oxLDL were coated at 50 μg/ml. Native haemoglobin (Sigma-Aldrich, H7379), albumin, IgIV Gammagard and ovalbumin controls were prepared from lyophilized stocks. The controls were prepared by dissolving lyophilized proteins at 1 mg/ml in PBS upon resuspending by pipetting, followed by a 30 minutes period at the roller device, at room temperature. The protein solutions were centrifuged for 10 minutes at 16,000*g and diluted in coat buffer. After coating the plates were washed at least three times with 50 mM Tris-HCl pH 7.3, 150 mM NaCl, 0.1% v/v Tween20, and blocked with Blocking reagent (Roche Diagnostics, Almere, The Netherlands; 11112589001), for 1 h at room temperature, with motion. Plates were washed three times and incubated in triplicate with indicated chaperone dilution series, at 50 μl/well, for 1 h at room temperature, with constant motion. For HSP90, 5 mM DTT is incorporated in the binding buffer (PBS/0.1% Tween20) to avoid unwanted disulfide bond formation of the HSP90. […] After four wash cycles, secondary antibodies were added to the wells when required, 50 μl/well, for 45′ at room temperature, with motion. RAMPO and SWARPO were used at 3000 times dilution. […] In a second experiment with more immobilized misfolded proteins and controls, the detection of bound HSP90 with the mix of two anti-HSP90 antibodies was achieved by mixing 1:1500 SWARPO with 1:3000 RAMPO. After 5 washes with wash buffer followed by two washes with PBS, binding of antibodies was assessed. Bound anti-FLAG-PO, peroxidase-conjugated rabbit anti-mouse immunoglobulins (RAMPO, P0260, DAKOCytomation, Glostrup, Denmark) or peroxidase-coupled swine anti-rabbit immunoglobulins (SWARPO, P0217, DAKOCytomation) was visualized with tetramethylbenzidine (TMB, #45.01.20,/#45.014.01, Biosource, Nivelles, Belgium). The reaction was stopped after 5 minutes with 1% H2SO4 in H2O. Plates were read at 450 nm. Triplicates were averaged and standard deviations calculated. Background signals obtained with buffer-coated wells were subtracted (binding of primary antibody to empty wells), as well as background signals obtained with ligand-coated wells in which the chaperones were omitted (binding of primary and secondary antibody to coated ligands). Subsequently, sub-optimal concentrations of chaperones for binding to misfolded protein ligands are determined, and these concentrations are used for inhibition studies.
In a subsequent study we analysed whether BiP interacts directly with the crossbeta structure, by performing ELISA binding studies with a fixed sub-optimal concentration of BiP and concentration series of crossbeta binding compounds. The results are depicted in FIGS. 12, 13 and Table 7. Binding of BiP without added crossbeta binding compounds was set to 100%.

[4] = target: T2, Escherichia coli HSP70 family member DnaK (Escherichia coli, UniProt P0A6Y8); assay: ELISA: binding of DnaK to immobilized (misfolded) protein ligands
T2 construct: purchased Stressgen (Ann Arbor, Mich., USA) SPP-630
T2 sequence (P0A6Y8 whole entry): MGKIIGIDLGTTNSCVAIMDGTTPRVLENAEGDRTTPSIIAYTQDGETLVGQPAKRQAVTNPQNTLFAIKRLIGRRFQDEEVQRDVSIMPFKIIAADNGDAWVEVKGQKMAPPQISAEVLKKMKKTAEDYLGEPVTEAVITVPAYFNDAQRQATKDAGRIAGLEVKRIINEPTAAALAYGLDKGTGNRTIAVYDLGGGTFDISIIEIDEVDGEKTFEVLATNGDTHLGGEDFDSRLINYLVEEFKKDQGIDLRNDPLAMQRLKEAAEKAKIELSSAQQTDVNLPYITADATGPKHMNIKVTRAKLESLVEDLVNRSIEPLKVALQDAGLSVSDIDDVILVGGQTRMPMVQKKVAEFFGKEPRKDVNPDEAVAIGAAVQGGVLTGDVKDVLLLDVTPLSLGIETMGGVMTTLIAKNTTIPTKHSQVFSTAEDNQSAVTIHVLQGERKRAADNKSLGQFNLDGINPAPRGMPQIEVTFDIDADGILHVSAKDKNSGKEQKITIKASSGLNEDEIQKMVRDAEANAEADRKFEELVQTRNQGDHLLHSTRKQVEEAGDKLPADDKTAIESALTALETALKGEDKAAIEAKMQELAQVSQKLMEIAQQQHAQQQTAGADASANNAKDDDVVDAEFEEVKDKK
Protocol: Recombinant Escherichia coli (E. coli) DnaK was purchased from Stressgen (Ann Arbor, Mich., USA; SPP-630). For the binding studies first lot B502468 (100 μg, lot A) and then lot 05240609 (200 μg, lot B) was used.
as §1

human BiP [5] = target: T1, human BiP; assay: ELISA: binding of BiP in cell culture supernatant to immobilized misfolded proteins; details: undiluted supernatant of 293E cells overexpressing BiP; ligands coated at 5 μg/ml, Aβ 20 μg/ml
Protocol: Binding of BiP to Misfolded Proteins with Crossbeta Structure
Proteins at 5 μg/ml were coated for 1 h at room temperature with agitation, in Microlon high-binding ELISA plates (Greiner) in 50 mM NaHCO3 pH 9.6, except for Aβ that was coated at 20 μg/ml. Buffer was coated as negative control. A twofold dilutions series of cell culture supernatant of HEK 293E cells overexpressing BiP was also coated to the plate for anti-FLAG-tag antibody control purposes. Plates were washed and blocked with ½*Blocking reagent (Roche). Undiluted cell culture supernatant enriched with 0.1% Tween20 was added to the wells with immobilized protein ligands and incubated for 1 h at room temperature with agitation. Medium was discarded and the plate was washed with PBS with 0.1% v/v Tween20. Mouse monoclonal anti-FLAG-tag antibody (Sigma, A8592, anti-FLAG M2PO conjugate) was diluted 1000× in PBS/0.1% Tween20 and added to all wells, including those that are coated with cell culture supernatant. After a 1 h incubation at room temperature with agitation and after washing, wells were overlayed with 3000× diluted RAMPO (DAKOCytomation) in PBS/0.1% Tween20. After 30 minutes the plate was washed and bound peroxidase was visualised with tetramethylbenzidine (TMB, #45.103.20/#45.014.01, Biosource, Nivelles, Belgium). The reaction was stopped after 5 minutes with 10% H2SO4 in H2O. Plates were read at 450 nm.

| Substance | TEM [1] | Binding of concentration series of BiP to coated ligand (human BiP [2]) | Influence of Congo red on interaction of BiP with misfolded protein (human BiP [3]; concentration series of Congo red) | Influence of ThS on interaction of BiP with misfolded protein (human BiP [3]; concentration series of ThS) | Influence of ThT on interaction of BiP with misfolded protein (human BiP [3]; concentration series of ThT) | Binding of concentration series of DnaK to coated ligand [4] | Binding of BiP to immobilized protein (ELISA) (human BiP [5]) |
| --- | --- | --- | --- | --- | --- | --- | --- |
| HWDFAWPW [6BB10] | Nothing visible^† | has been established | ↓ (a ↓ sign refers to inhibited abolished binding of BiP) | ↓ (a ↓ sign refers to inhibited abolished binding of BiP) | ↓ (a ↓ sign refers to inhibited abolished binding of BiP) | did not bind | – |
| d-lysozyme: heat-denatured hen egg-white lysozyme | – | – | – | – | – | – | more pronounced |
